This note sets out measurements from ChEMBL document CHEMBL2074420, “Taxol transport by human intestinal epithelial Caco-2 cells” (Drug Metab Dispos, 1998).

The subject of the data set is CC(=O)O[C@H]1C(=O)[C@@]2(C)[C@H]([C@H](OC(=O)c3ccccc3)[C@]3(O)C[C@H](OC(=O)[C@H](O)[C@@H](NC(=O)c4ccccc4)c4ccccc4)C(C)=C1C3(C)C)[C@]1(OC(C)=O)CO[C@@H]1C[C@@H]2O. Put plainly: TP_TRANSPORTER: transepithelial transport (basal to apical) in Caco-2 cells. Format: functional, cell-based. In general terms: Caco-2 monolayers are a common model of the intestinal barrier.

One may read the Km as the substrate concentration at which the rate is half of its maximum. As to “ATP-dependent translocase ABCB1 (Homo sapiens)”, the Km came to 16.5 µM.
